Where only a bound is given, the exact number is not on record here.

The target of the test is HLA-B*07:02. Kind of test: IEDB peptide-MHC binding, purified MHC/competitive/fluorescence; ≥ and ≤ were set here for values at or beyond the usual limits of such assays. Particulars: source organism: Homo sapiens.
As a reminder, the IC50 is the concentration that gives 50% inhibition. Higher therefore signals a need for much substance. IATVDSYVI displayed a concentration for half-maximal inhibition (IC50) of at least 219000 nM.

Regarding RPYSNVSNL, the IC50 worked out at 228 nM.

The sequence LPTSHPKIV registered an IC50 of 3560 nM.

The sequence APAYSRAL gave an IC50 of 215 nM.

The sequence SPNQARAQAAL had an IC50 of 926 nM.

With GPRTAALGLL, the half-inhibitory concentration (IC50) came to 258 nM.

As to AARPATSTL, the IC50 was 210 nM.

Regarding TPQSNRPVM, the IC50 worked out at 466 nM.

Turning to STTAICATGL, the IC50 was at least 248000 nM.

The sequence APKRPPSAF came in with a 50% inhibitory concentration (IC50) of 176 nM.

NPNQNKNVAL yielded a concentration for half-maximal inhibition (IC50) of 1580 nM.

(Values after the Immune Epitope Database (IEDB).)
